Measured values: PMC10688334, “Toward the understanding of DSG2 and CD46 interaction with HAdV-11 fiber, a super-complex analysis” (Journal of Virology, 2023)

B1: recombinant DSG2 EC2-EC3 extracellular domains (domain or fragment, human, UniProt Q14126 149-386, looked up)
chain: VLDINDNEPVFTQDVFVGSVEELSAAHTLVMKINATDADEPNTLNSKISYRIVSLEPAYPPVFYLNKDTGEIYTTSVTLDREEHSSYTLTVEARDGNGEVTDKPVKQAQVQIRILDVNDNIPVVENKVLEGMVEENQVNVEVTRIKVFDADEIGSDNWLANFTFASGNEGGYFHIETDAQTNEGIVTLIKEVDYEEMKNLDFSVIVANKAAFHKSIRSKYKPTPIPIKVKVKNVKEGI
notes: desmoglein 2 (DSG2), human, EC2-EC3 domains, residues V149-I386 of Swiss-Prot Q14126.2; Cloned AgeI/KpnI in pHL-sec, which supplies a secretion signal and the C-terminal His6; also called rDSG2; soluble rDSG2; source: HEK293 F, transiently transfected, secreted, purified from supernatant (His GraviTrap, Superdex 200)
B2: human HAdV-11 fiber knob, wild type (domain or fragment)
chain: DDNINTLWTGVNPTEANCQIMNSSESNDCKLILTLVKTGALVTAFVYVIGVSNNFNMLTTHRNINFTAELFFDSTGNLLTRLSSLKTPLNHKSGQNMATGAITNAKGFMPSTTAYPFNDNSREKENYIYGTCYYTASDRTAFPIDISVMLNRRAINDETSYCIRITWSWNTGDAPEVQTSATTLVTSPFTFYYIREDD
notes: HAdV-11 fiber protein, knob, residues D128 to D325 of Swiss-Prot P35774; gene synthesised by GenScript; Trimeric form purified; amine-coupled to the biosensor in the kinetic BLI; also called HAd11K; HAd11 knob; not shown: His6, N-terminal, kept
B3: recombinant CD46 SCR1-SCR2 domains (domain or fragment, human, UniProt P15529 35-160, looked up)
chain: CEEPPTFEAMELIGKPKPYYEIGERVDYKCKKGYFYIPPLATHTICDRNHTWLPVSDDACYRETCPYIRDPLNGQAVPANGTYEFGYQMHFICNEGYYLIGEEILYCELKGSVAIWSGKPPICEKV
notes: hCD46, the two first extracellular domains (SCR1, SCR2), residues C35-V160 of Swiss-Prot P15529; gene synthesised by GenScript; Cloned in the same vector pHL-sec as rDSG2 (secretion signal, C-terminal His6); also called rCD46; soluble rCD46; source: HEK293 F, transiently transfected, secreted, purified from supernatant (His GraviTrap, Superdex 200)

Experiments:
[1] = target: B2; assay: cryo-EM structure; SEC fraction of HAd11K/rDSG2/rCD46 super-complex (rDSG2:rCD46 3:1); conditions: both partners purified
[2] = target: the molecule itself; assay: cryo-EM structure; HAd11K in complex with rDSG2; two populations (one or two rDSG2 per knob trimer)
[3] = target: B1; assay: BLI; HAd11K (WT or D265A), 100 µg/mL in 10 mM sodium acetate pH 4, amine-coupled to AR2G biosensor; rDSG2 or rCD46 0.7-10.8 µM in HBS-P (10 mM HEPES, 145 mM NaCl, 0.005% P20, pH 7.4) with 3 mM CaCl2; room temperature; association 180 s, dissociation 120 s; global fit; conditions: both partners purified
[4] = target: B2; assay: as above; conditions: both partners purified

Binder | stoichiometry N [1] | stoichiometry N [2] | Kd [3] | koff [3] | kon [3] | Kd [4] | koff [4] | kon [4]
B1 | 1 | – | – | – | – | – | – | –
B2 | – | 3 | 2900 nM | 0.114 s⁻¹ | 39400 M⁻¹ s⁻¹ | – | – | –
B3 | 1 | – | – | – | – | 243 nM | 0.005 s⁻¹ | 22800 M⁻¹ s⁻¹
